Test results as given in patent US20060246084A1.

Target: synthetic fragment of the mouse TLR-2 extracellular domain (mouse)

LMDKNLYGYTDEEIFKAS (modifications not checked) [LcrV193-210 synthetic peptide] gave a Kd of 0.35 nM.
